Experimental data as given in patent publication US20240132589A1 (ONCORESPONSE, published 2024).

B1: B2H1-55 (antibody, V domains shown)
VH: EVQLLESGGGLVQPGTSLTLSCAASGFSLSTYAMSWVRQAPGKGLEWIGWIYNDGSTYYAAWAKGRFTISKDTSKTTLYLQITSLRAEDTATYFCAREGDYIGYFNIWGQGTLVTVSS
VL: DVVMTQTPSSVSAALGGTVTIKCQASQSIGSNLAWYQLKPGQRPKLLIYAAATLASGGSSRFKGSGSGTDFTLTISSLEPADAATYYCQSYVSGSSDVAFGGGTEVVVK
notes: Humanized variant, human IgG1 / kappa; also called humanized variant B2H1-55; humanized LILRB2 antibody B2H1-55
B2: B2A-IgG4 (antibody)
heavy: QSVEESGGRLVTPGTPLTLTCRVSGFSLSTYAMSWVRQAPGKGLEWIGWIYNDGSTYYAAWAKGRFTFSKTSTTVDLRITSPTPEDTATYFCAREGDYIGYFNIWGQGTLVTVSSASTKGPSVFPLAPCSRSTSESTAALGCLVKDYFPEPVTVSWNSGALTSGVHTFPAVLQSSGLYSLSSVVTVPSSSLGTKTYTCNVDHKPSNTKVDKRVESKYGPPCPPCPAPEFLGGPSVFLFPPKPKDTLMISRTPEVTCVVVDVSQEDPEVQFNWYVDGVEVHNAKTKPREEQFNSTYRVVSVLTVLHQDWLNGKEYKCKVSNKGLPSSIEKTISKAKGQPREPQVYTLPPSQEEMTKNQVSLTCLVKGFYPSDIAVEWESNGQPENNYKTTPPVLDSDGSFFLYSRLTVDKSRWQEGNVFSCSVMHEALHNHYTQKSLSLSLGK
light: DVVMTQTPSSVSAALGGTVTIKCQASQSIGSNLAWYQLKPGQRPKLLIYAAATLASGGSSRFKGSGSGTDFTLTISDLECADAATYYCQSYVSGSSDVAFGGGTEVVVKRTVAAPSVFIFPPSDEQLKSGTASVVCLLNNFYPREAKVQWKVDNALQSGNSQESVTEQDSKDSTYSLSSTLTLSKADYEKHKVYACEVTHQGLSSPVTKSFNRGEC
notes: Rabbit variable regions on human IgG4 / kappa constant regions; also called B2A-IgG4 chimera; Parent B2A-IgG4

Legend:
[1] = target: T1, Human LILRB2 on primary human myeloid cells (human, UniProt Q8N423 22-597); assay: flow cytometry, AF647-conjugated antibody on human monocytes (15 subjects), average
T1 construct: whole, on cells; the cell type is named under assay; also called LILRB2 on monocytes, M0 and M2c macrophages, myeloid dendritic cells, neutrophils
T1 sequence (Q8N423 22-597): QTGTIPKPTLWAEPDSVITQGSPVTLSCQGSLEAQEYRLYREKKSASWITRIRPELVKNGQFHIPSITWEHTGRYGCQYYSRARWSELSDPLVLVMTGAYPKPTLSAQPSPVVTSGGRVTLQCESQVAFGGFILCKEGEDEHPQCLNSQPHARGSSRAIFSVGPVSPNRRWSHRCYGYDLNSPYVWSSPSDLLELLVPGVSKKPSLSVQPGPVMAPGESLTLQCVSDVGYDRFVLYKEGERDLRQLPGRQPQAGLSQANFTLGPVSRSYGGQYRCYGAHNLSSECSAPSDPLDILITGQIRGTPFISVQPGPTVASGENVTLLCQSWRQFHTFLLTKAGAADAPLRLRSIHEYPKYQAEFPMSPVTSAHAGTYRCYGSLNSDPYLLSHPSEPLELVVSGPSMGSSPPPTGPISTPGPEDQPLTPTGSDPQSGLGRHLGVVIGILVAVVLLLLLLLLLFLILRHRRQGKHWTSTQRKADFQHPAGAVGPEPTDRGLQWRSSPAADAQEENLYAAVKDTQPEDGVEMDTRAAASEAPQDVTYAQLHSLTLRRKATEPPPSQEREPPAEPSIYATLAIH
Procedure: (§1) Anti-LILRB2 antibodies were evaluated for their ability to bind myeloid cell subsets expressing LILRB2, including monocytes, M0 macrophages, and M2c macrophages. M2c macrophages are used as a surrogate for tumor-associated macrophages, a suppressive macrophage commonly found in the tumor microenvironment. Frozen monocytes were removed from storage in vapor phase liquid nitrogen and thawed by gentle swirling in a water bath at 37° C., then resuspended in X-VIVO™ 15 media with 10% FBS. PBMC were placed in a 15 mL conical tube and centrifuged at 300×g for 5 minutes, then supernatant was removed. Cells were resuspended in Assay Medium (X-VIVO™ 15+10% FBS) at a cell density of 2.5×10⁵ cells/mL. Cells were plated into 96-well flat bottom plates at 100 μL/well (25K cells/well). M0 and M2c macrophages were generated as described in Example 10 and collected from flasks by incubation for 15 min at RT in Macrophage Detachment Solution DXF, then removed from the flask into X-VIVO™ 15 medium. Following centrifugation, the cells were resuspended in FACS Blocking Buffer D (FACS Buffer+10% FBS+0.5 mg/mL human IgG1) then incubated at 4° C. for 30 minutes. […]

[2] = target: T1, Human LILRB2 on primary human myeloid …; assay: flow cytometry, AF647-conjugated antibody on human M2c macrophages (10 subjects), average
Procedure: as §1

LILRB2-Fc protein = target: T2, LILRB2-Fc protein (human, UniProt Q8N423 22-460, limits assumed); assay: blocking ELISA: LILRB2-Fc pre-incubated with antibody titration, binding to coated monomer HLA-G
T2 construct: also called human LILRB2-Fc; not shown: Fc part
T2 sequence (Q8N423 22-460 limits assumed): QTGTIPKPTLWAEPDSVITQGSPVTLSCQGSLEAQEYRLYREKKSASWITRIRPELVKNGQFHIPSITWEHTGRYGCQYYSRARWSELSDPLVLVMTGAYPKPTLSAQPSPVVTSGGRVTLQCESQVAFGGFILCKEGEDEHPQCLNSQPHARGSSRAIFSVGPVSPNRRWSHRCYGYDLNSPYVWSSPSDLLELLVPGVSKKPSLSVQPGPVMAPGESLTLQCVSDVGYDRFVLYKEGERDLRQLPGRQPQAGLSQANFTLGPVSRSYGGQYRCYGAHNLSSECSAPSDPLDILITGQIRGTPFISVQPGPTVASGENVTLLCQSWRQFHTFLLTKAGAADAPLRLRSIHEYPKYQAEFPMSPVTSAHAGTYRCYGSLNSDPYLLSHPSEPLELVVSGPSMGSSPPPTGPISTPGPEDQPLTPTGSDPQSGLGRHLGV
Procedure: Tumor-associated HLA-G is an HLA Class I ligand for LILRB2. Binding of HLA-G to LILRB2 induces an immune suppressive signal in LILRB2 expressing myeloid cells. To determine if the anti-LILRB2 antibodies block the HLA-G-LILRB2 interaction and prevent the induction of an inhibitory signal, blocking ELISA assays in a dose titration were performed. 384-well plates were coated with monomer HLA-G (Fred Hutchinson Cancer Research Center, No. bHLA-G) at a concentration of 5 μg/mL, diluted in PBS, then plates were incubated at RT for 1 hour. Plates were rinsed with Wash Buffer three times, then blocked with Blocking Buffer A for 30 minutes at RT. During blocking incubation step, LILRB2-Fc protein and antibody titrations were prepared in Blocking Buffer A. LILRB2-Fc protein was then incubated with antibody titrations for 30 minutes at RT to allow for binding prior to addition onto plate. Plates were rinsed three times with Wash Buffer, then 25 μL of protein/antibody mixture was added per well and incubated for 1 hour at RT. Following antibody incubation, plates were washed three times with Wash Buffer. Anti-human IgG Fc-HRP secondary antibody was diluted and added at 25 μL/well. Plates were incubated in the dark for 1 hour at RT. Following secondary antibody incubation, plates were washed four times with Wash Buffer. […] Absorbance was read at 450 nm using the Envision. […]

[3] = target: T3, Human LILRB2 on stably transduced HEK293T cells (human, UniProt Q8N423 22-597); assay: flow cytometry, HEK293T cells stably expressing human LILRB2
T3 construct: Lentiviral transduction (G&P Biosciences LTV2992); also called HEK293T-LILRB2; LILRB2-expressing HEK293T cells
T3 sequence (Q8N423 other isoform, or with tags, fused parts or gaps limits assumed): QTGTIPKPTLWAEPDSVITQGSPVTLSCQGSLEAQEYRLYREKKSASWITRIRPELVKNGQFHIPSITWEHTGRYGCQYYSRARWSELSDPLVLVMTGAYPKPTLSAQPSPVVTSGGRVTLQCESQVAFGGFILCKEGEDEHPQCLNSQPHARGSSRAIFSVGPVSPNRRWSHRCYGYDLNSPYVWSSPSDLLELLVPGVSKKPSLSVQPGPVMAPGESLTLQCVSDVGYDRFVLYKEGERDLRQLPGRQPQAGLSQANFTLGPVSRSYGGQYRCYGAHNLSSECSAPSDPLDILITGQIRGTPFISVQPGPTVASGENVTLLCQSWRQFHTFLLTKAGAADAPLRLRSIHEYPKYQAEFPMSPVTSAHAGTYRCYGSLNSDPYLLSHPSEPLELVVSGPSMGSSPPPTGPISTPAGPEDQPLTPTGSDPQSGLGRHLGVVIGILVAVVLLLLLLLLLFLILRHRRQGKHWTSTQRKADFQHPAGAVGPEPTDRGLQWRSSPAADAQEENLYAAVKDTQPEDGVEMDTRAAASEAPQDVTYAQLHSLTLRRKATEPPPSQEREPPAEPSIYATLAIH
Procedure: To confirm binding of LILRB2 antibodies, flow cytometry binding assays were performed using HEK293T cells stably expressing human LILRB2 (Example 3). […] The B2A-IgG1 and B2A-IgG4 chimeras bound the LILRB2-expressing HEK293T cells, with equivalent EC₅₀ values of 0.21 nM and 0.30 nM respectively.
Select humanized variant antibodies were purified and tested for their ability to bind human LILRB2 by ELISA, using the method described in Example 2, and binding to HEK293T cells expressing human LILRB2, using the method described in Example 4. Representative data are shown for IgG4 variants in Table 6.

| Binder | EC50 [1] [µg/mL] | EC50 [2] [µg/mL] | IC50 (LILRB2-Fc protein) [µg/mL] | BMAX [gMFI] [3] [gMFI] | EC50 [3] [µg/mL] |
| --- | --- | --- | --- | --- | --- |
| B1 | 0.0356 | 0.0243 |  |  |  |
| B2 |  |  | 0.066 | 12100 | 0.00034 |
